Test results: PMC4105210 (Nature communications, 2014)
Where a chain is given by its changes, count along the chain named. Names may count otherwise.

Experiments:
[1] = target: T1, HSV-1 UL31Δ50 (residues 51-306) (HSV-1 strain F, UniProt P10215 51-306); assay: SEC
T1 sequence: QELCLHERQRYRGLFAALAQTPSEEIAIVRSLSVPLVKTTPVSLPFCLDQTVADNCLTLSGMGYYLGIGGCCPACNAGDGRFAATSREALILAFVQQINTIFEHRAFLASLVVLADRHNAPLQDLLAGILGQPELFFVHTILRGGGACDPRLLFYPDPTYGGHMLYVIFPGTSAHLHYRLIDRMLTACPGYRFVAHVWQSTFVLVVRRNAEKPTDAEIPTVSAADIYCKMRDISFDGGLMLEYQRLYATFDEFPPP

[2] = target: T2, HSV-1 UL31, full length (residues 1-306) (HSV-1 strain F, UniProt P10215 1-306); assay: co-purification
T2 sequence: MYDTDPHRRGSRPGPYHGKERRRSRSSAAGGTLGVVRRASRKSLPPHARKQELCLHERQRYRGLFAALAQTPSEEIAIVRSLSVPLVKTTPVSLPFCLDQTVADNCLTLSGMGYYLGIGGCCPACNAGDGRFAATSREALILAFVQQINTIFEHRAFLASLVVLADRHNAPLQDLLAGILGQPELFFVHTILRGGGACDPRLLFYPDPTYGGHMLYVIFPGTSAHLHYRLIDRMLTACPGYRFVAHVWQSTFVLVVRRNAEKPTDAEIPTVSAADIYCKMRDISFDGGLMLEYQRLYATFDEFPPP

[3] = target: the molecule itself; assay: cryo-EM structure
[4] = target: the molecule itself; assay: cross-linking
[5] = target: T2, HSV-1 UL31, full length (residues 1-306); assay: SEC

B1: HSV-1 UL34(1-220) (domain or fragment)
chain: MAGLGKPYTGHPGDAFEGLVQRIRLIVPSTLRGGDGEAGPYSPSSLPSRCAFQFHGHDGSDESFPIEYVLRLMNDWAEVPCNPYLRIQNTGVSVLFQGFFHRPHNAPGGAITPERTNVILGSTETTGLSLGDLDTIKGRLGLDARPMMASMWISCFVRMPRVQLAFRFMGPEDAGRTRRILCRAAEQAITRRRRTRRSREAYGAEAGLGVAGTGFRARGD
B1: binds [1]; binds [2].

B2: HSV-1 nuclear egress complex NEC220 (UL31 1-306 with UL34 1-220) (complex)
chain 1: T2 sequence
chain 2: B1 chain
B2 was tested, and the “stoichiometry N” value [3] was 6.

B3: HSV-1 nuclear egress complex NEC220-DN (UL31 1-306 with UL34 1-220 D35A/E37A) (complex)
chain 1: T2 sequence
chain 2: B1 chain with D35A, E37A
B3: binds [4].

B4: HSV-1 UL34(1-185) (domain or fragment)
chain: MAGLGKPYTGHPGDAFEGLVQRIRLIVPSTLRGGDGEAGPYSPSSLPSRCAFQFHGHDGSDESFPIEYVLRLMNDWAEVPCNPYLRIQNTGVSVLFQGFFHRPHNAPGGAITPERTNVILGSTETTGLSLGDLDTIKGRLGLDARPMMASMWISCFVRMPRVQLAFRFMGPEDAGRTRRILCRAA
B4: binds [5]; binds [1].
